In the data set the test system is MS2 coat protein. The data set is described as follows: apparent KD of MS2 coat protein; designed switch direction (-1 OFF switch, 1 ON switch): -1; higher = weaker reporter binding. The gist of the method:
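The apparent KD reported per design is the median over clusters of curve fits to normalised cluster fluorescence. The RNA switches were transcribed on Illumina chips by stalled E. coli RNA polymerase. SNAP-549-labelled MS2 coat protein was titrated from 0.7 or 1.5 nM, doubling up to 3 µM, in Tris-HCl pH 7.5 buffer containing KCl, MgCl2, BSA, DTT, tRNA and Tween-20, with no input, 200 uM small-molecule ligand, or an oligonucleotide input.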

[1] abbreviates: input ligand: microRNA oligo, concentration not stated.
Where [2] appears, read: Eterna round: R95, input ligand: microRNA oligo, concentration not stated.

As for “AAUAAUCAUGUAGGAUAUGCGUGGCAAAGCUAUGCAGAAGGACAUGAGGAUCACCCAUGUUCUAGCGUCUGAGAACAGAUGCUA [Mat - Exclusion NG 1 - Mod of JL - D82] (Eterna round: R96, puzzle: Exclusion NG 1)”, the “apparent KD of MS2 coat protein” value (input ligand: FMN 200 uM) was found to be 0.384 µM, the “apparent KD of MS2 coat protein” value under setting [1] amounted to 0.0302 µM and the “apparent KD of MS2 coat protein” value (input ligand: none) stood at 0.0415 µM.

Turning to “AAUAAUCAUGUAGGAUAUGCGUGGCAAAGCUAUGCAGAAGGACAUGAGGAUCACCCAUGUUCUAGCGUCUGAGUACAGAUGCUA [Mat - Exclusion NG 1 - Mod of JL - D81] (Eterna round: R96, puzzle: Exclusion NG 1)”, the “apparent KD of MS2 coat protein” value runs as follows: (input ligand: FMN 200 uM) 0.399 µM; under setting [1], 0.0321 µM; (input ligand: none) 0.0474 µM.

With “AAUAAUCGGGCCUUCCUAUUACAUGAGGAUCACCCAUGUCUCGAGGAUAUACCGACGCACGGUCCGUAGAAGGCGAGACCACAC [Esusbied] (Eterna round: R96, puzzle: Exclusion NG 3)”, the “apparent KD of MS2 coat protein” value was found to be 0.141 µM (input ligand: FMN 200 uM), 0.0145 µM under setting [1] and 0.0247 µM (input ligand: none).

Regarding “AAUAAUGAUAAGGAUAUCACUAGCUUCGGCUAGUGAGAAGGUAUCACAUGAGGAUCACCCAUGUGUUCCAAUAA [Ex6/6-A1] (Eterna round: R97, puzzle: Exclusion 6)”, the “apparent KD of MS2 coat protein” value (input ligand: FMN 200 uM) worked out at 0.0381 µM and the “apparent KD of MS2 coat protein” value (input ligand: none) was 0.018 µM.

Consider “AAUACAAGCUAUUGAUCCCACAUGAGGAUCACCCAUGUAGCUGGCCGUGAGACCAGCUUUACAAUAGCUCGUCUUAU [Sensor-V1 #49] (Eterna round: R97, puzzle: Sensor, turn-off variant 1)”, for which the “apparent KD of MS2 coat protein” value (input ligand: FMN 200 uM) was determined as 0.0752 µM and the “apparent KD of MS2 coat protein” value (input ligand: none) is 0.0713 µM.

Take “AAUACGUGAGGAUAUAGAUGAAGGAACUUGAGGAUCACCCAAGUGGCGUCUAGUUCCUGGCUAGAAGGCACAAAUA [Biedbe] (Eterna round: R97, puzzle: Exclusion 5)”: the “apparent KD of MS2 coat protein” value reads like this: (input ligand: FMN 200 uM) 0.263 µM; (input ligand: none) 0.326 µM.

Regarding “AAUAGUCGGUAGGAUAUCCACGGAUGACCGGCAGGAGAAGGGCCGACUUGAGGAUCACCCAAGUAUGGUCCUAA [Texeonxe] (Eterna round: R97, puzzle: Exclusion 6)”, the “apparent KD of MS2 coat protein” value (input ligand: FMN 200 uM) was 0.0159 µM and the “apparent KD of MS2 coat protein” value (input ligand: none) worked out at 0.0145 µM.

For the sequence “AAUCCUGAAGUUAGGAUAUGAAGUAUCACUGCACUUCAGAAGGGACUUGAGGAUCACCCAAGUAGCCGUGAGGG [salish99_bmod_ex4_r4_001] (Eterna round: R97, puzzle: Brourd's mod of Exclusion 4)”, the “apparent KD of MS2 coat protein” value by setting is: (input ligand: FMN 200 uM) 0.161 µM; (input ligand: none) 0.0475 µM.

On to “AAUCUGUGAGGAUAUGGUGAGUAGUGCCUGAGCGCUGCUCACCAGAAGGCACAUGAGGAUCACCCAUGUAUGAA [Mat - Exclusion 4 - Mod of JL - D3] (puzzle: Exclusion 4)”, for which the “apparent KD of MS2 coat protein” value under setting [2] was found to be 0.028 µM.

With “AAUGCCGGUGUCAGGAUAUCCGGAGGGAAACCUCCGGAGAAGGGACAUGAGGAUCACCCAUGUAUGUAACCUGC [AK-MS2ROC-r4-Bmoexclusion4-6] (Eterna round: R97, puzzle: Brourd's mod of Exclusion 4)”, the “apparent KD of MS2 coat protein” value by setting is: (input ligand: FMN 200 uM) 0.0249 µM; (input ligand: none) 0.0222 µM.

Take “AAUUAAGCAAGCAGAUCCCACAUGAGGAUCACCCAUGUGCUCGUCUUAUAAGGUACUGUGACGAGAGUCACGGUACC [Mat - Sensor, turn-off var - Eli Mod - D70] (Eterna round: R97, puzzle: Sensor, turn-off variant 1)”: the “apparent KD of MS2 coat protein” value (input ligand: FMN 200 uM) came out at 0.128 µM and the “apparent KD of MS2 coat protein” value (input ligand: none) worked out at 0.0971 µM.

As to “AAUUAAUUAAUUAAUUAAUACAUGAGGAUCACCCAUGUAAUUUAAGAUCCUUAUACAAGCUUUGAUCUCGUAAUUAA [Stov1/4-A1] (Eterna round: R97, puzzle: Sensor, turn-off variant 1)”, the “apparent KD of MS2 coat protein” value came out at 0.0989 µM (input ligand: FMN 200 uM) and 0.0938 µM (input ligand: none).

For “AAUUACAAGCAAAGAUCUUACAUGAGGAUCACCCAUGUGCUCGUUUUAUAAAGUACUAUCACGAAAGUGAUAGUACA [Mat - Sensor v3 - turn-off var 1 - Eli Mod - D95] (puzzle: Sensor v3, turn-off variant 1)”, the “apparent KD of MS2 coat protein” value came out at 0.0299 µM (Eterna round: R95, input ligand: FMN 200 uM); 0.0909 µM under setting [2]; 0.0263 µM (Eterna round: R95, input ligand: none).

Turning to “AAUUAGCUAGGAUAUACAUGAGGAUCACCCAUGUCAGUUACAUGGCCGGGUGUAACGAGUAGAAGGAGCGCCAA [EX3 B.28] (Eterna round: R97, puzzle: Exclusion 3)”, the “apparent KD of MS2 coat protein” value (input ligand: FMN 200 uM) worked out at 0.175 µM and the “apparent KD of MS2 coat protein” value (input ligand: none) was determined as 0.513 µM.

Consider “AAUUAUUUUUGAGGAUAUCGUGGUGAAACACCACGAGAAGGCGAGAUAAACAUGAGGAUCACCCAUGUGAGCCUGAUGCUUAUG [Ex NG1 #50] (Eterna round: R96, puzzle: Exclusion NG 1)”, for which the “apparent KD of MS2 coat protein” value under setting [1] was 0.0181 µM.
